In patent US11287428B2, “PD1 and PDL-1 expression during progression from myelodysplastic syndrome to acute myelogenous leukemia” (H. Lee Moffitt Cancer Center and Research Institute, Inc., priority 2016, dated 2022):

Key:
Type in all cases: cell-based, human
CD33+CD14+ cells = assay: Culture of BM cells with S100A9, PD-L1 surface expression by flow cytometry; conditions: BM cells cultured with S100A9, 48 h
Description: FIG. 5. Culture of BM cells with rhS100A9 can induce the expression of PDL1 on CD33+CD14+.
(§1) FIGS. 20A-20C. […] One and half million of BM cells from Healthy donor were placed per well in 24-well plate, cultured with IgG or S100A9. After 48 h, cells were collected and stained with antibodies: anti-CD33-PE-Cy7, anti-CD34-Percp-Cy5.5, anti-CD14-BV510, anti-CD71-BV421, anti-CD38-BV711, anti-CD235a-BUV395, anti-PD-1-FITC and anti-PD-L1-APC. Near infrared live/dead dye was used for distinction of live or dead cells. Flow acquisitions were performed using LSR II cytometer and analysis was done using live cells with flowjo. (A) PD-L1 expression on CD14+/CD33+: cells positive for PD-L1 surface expression were calculated based on FMO gate setting. (B) and (C) PD-1 expression on progenitors by S100A9 or PT plasma, respectively. Positive PD-1 surface expression on CD14−/CD33−/CD71−/CD34+/CD38+ progenitors was determined using FMO gates. HD—healthy donor (n=6), MDS—myelodysplastic syndrome (n=10). Significance was determined using two-tailed unpaired t test with Welch's correction: *P<0.05, **P<0.01, ***P<0.001, error bars indicate mean±SEM.

[1] = test system: CD33+, CD34+, and CD71+ cells; assay: Culture of BM cells with S100A9, PD-1 surface expression by flow cytometry; conditions: for PD-1 expression on CD34+ cells / PD-1 expression on CD71+ cells: BM cells cultured with S100A9, 48 h
Description: FIGS. 6A and 6B. Culture of BM cells with rhS100A9 can induce the expression of PD1 on CD33+.
FIG. 7. Culture of BM cells with rhS100A9 can induce the expression of PD1 on CD34+.
FIG. 8. Culture of BM cells with rhS100A9 can induce the expression of PD1 on CD71+.
as §1

CD71 cells = assay: Active caspase 3 staining of BM cells cultured with S100A9; conditions: BM cells cultured with S100A9, 48 h
Description: FIG. 21. Increased the expression of PD-1 and PD-L1 induced cell death. One and half million of BM cells from Healthy donor were placed per well in 24-well plate, cultured with IgG or S100A9. After 48 h, cells were collected and stained for cell surface with antibodies: anti-CD33-PE-Cy7, anti-CD34-Percp-Cy5.5, anti-CD14-BV510, anti-CD71-BV421, anti-CD38-BV711, and anti-CD235a-BUV395, then cells were fixed/permeabilized and stained with anti-active caspase 3-PE according to manufacturer's protocol (BD Biosciences). Near infrared live/dead dye was used for distinction of live or dead cells. Flow acquisitions were performed using LSR II cytometer and analysis was done using live cells with flowjo. (A) PD-L1 expression on CD14+/CD33+: cells positive for PD-L1 surface expression were calculated based on FMO gate setting. (B) and (C). PD-1 expression on progenitors by S100A9 or PT plasma, respectively: Positive PD-1 surface expression on CD14−/CD33−/CD71−/CD34+/CD38+ progenitors was determined using FMO gates. HD—healthy donor (n=6), MDS—myelodysplastic syndrome (n=10). Significance was determined using two-tailed unpaired t test with Welch's correction: *P<0.05, **P<0.01, ***P<0.001, error bars indicate mean±SEM.

C-Myc = C-Myc and p-stat3 induction in HD BM cells cultured with S100A9; conditions: HD BM cultured with S100A9 for 48 h
Description: FIG. 23. […] Right panel, HD BM cells 48 h treatment.

[2] = listed as recombinant human S100A9

B1: S100A9: recombinant human S100A9 protein used to treat BM cells (protein, UniProt P06702 1-114, looked up)
Protein S100-A9: MTCKMSQLERNIETIINTFHQYSVKLGHPDTLNQGEFKELVRKDLQNFLKKENKNEKVIEHIMEDLDTNADKQLSFEEFIMLMARLTWASHEKMHEGDEGPGHHHKPGLGEGTP
PD-L1 expression on CD33+CD14+ cells (CD33+CD14+ cells): directly induced the expression of PD-L1 | PD-L1 expression on CD33+CD14+ cells (CD33+CD14+ cells; [2]): induces PDL1 expression | PD-1 expression on CD34+ cells [1]: directly induced | PD-1 expression on CD71+ cells [1]: directly induced | PD-1 expression on CD34+ cells [1, 2]: induces PD1 | PD-1 expression on CD71+ cells [1, 2]: induces PD1 | PD-1 expression on CD33+ cells ([1]; BM cells cultured with rhS100A9): induces PD1 | active caspase 3 in CD71 cells (CD71 cells): increase active caspase 3 | C-Myc expression (C-Myc): induced C-Myc expression | p-stat3 (C-Myc): induced p-stat3
